Assay results: patent publication US20250084142A1 (INTARCIA THERAPEUTICS, published 2025)
Starred links: 1 amine or outer side, 2 acyl side, 3 side chain; linkers in the order of their positions; H or OH if unused. Non-standard residues stand in square brackets, D forms with d. Groups on a side chain read outwards from the residue. No end group written: not given here. *: point of attachment. C20 diacid = O=C(O)CCCCCCCCCCCCCCCCCCC(=O)*; γGlu = O=C(O)[C@H](CCC(=O)[*:2])N[*:1]; NMeY = CN[C@@H](Cc1ccc(O)cc1)C(=O)O

T1: NPY5R
T1 sequence (Q15761 1-445, species assumed, looked up): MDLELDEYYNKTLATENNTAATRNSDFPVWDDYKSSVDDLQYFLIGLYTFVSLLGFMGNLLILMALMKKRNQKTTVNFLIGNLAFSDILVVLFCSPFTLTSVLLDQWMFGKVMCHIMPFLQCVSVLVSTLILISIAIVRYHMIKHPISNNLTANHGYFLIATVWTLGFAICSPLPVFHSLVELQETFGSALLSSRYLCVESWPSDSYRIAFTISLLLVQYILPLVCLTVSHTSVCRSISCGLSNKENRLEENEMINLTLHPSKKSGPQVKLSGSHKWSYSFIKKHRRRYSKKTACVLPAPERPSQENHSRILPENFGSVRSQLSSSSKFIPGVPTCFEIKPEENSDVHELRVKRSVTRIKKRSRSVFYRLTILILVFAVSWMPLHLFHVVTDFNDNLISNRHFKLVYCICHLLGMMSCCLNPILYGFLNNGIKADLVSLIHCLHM

T2: NPY2R
T2 sequence (P49146 1-381, species assumed, looked up): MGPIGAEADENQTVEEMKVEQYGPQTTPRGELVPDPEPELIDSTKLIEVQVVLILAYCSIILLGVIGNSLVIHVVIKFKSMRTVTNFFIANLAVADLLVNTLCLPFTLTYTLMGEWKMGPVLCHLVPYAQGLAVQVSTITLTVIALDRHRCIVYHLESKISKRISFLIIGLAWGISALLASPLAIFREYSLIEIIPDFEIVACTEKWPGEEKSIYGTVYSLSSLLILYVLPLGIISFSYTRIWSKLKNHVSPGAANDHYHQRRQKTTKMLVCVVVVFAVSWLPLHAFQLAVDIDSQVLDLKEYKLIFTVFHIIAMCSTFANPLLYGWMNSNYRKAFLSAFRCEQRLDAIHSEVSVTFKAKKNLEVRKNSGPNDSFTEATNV

B1: Compound A78 (peptide)
peptide: PKPEK([γGlu-γGlu-C20 diacid])PGEDASPKEWDRYYKDLRHYLNWLTRQRF-NH2
modifications: N-terminus assumed
SMILES: CC(C)C[C@H](NC(=O)[C@H](CC(=O)O)NC(=O)[C@H](CCCCN)NC(=O)[C@H](Cc1ccc(O)cc1)NC(=O)[C@H](Cc1ccc(O)cc1)NC(=O)[C@H](CCCNC(=N)N)NC(=O)[C@H](CC(=O)O)NC(=O)[C@H](Cc1c[nH]c2ccccc12)NC(=O)[C@H](CCC(=O)O)NC(=O)[C@H](CCCCN)NC(=O)[C@@H]1CCCN1C(=O)[C@H](CO)NC(=O)[C@H](C)NC(=O)[C@H](CC(=O)O)NC(=O)[C@H](CCC(=O)O)NC(=O)CNC(=O)[C@@H]1CCCN1C(=O)[C@H](CCCCNC(=O)CC[C@H](NC(=O)CC[C@H](NC(=O)CCCCCCCCCCCCCCCCCCC(=O)O)C(=O)O)C(=O)O)NC(=O)[C@H](CCC(=O)O)NC(=O)[C@@H]1CCCN1C(=O)[C@H](CCCCN)NC(=O)[C@@H]1CCCN1)C(=O)N[C@@H](CCCNC(=N)N)C(=O)N[C@@H](Cc1c[nH]cn1)C(=O)N[C@@H](Cc1ccc(O)cc1)C(=O)N[C@@H](CC(C)C)C(=O)N[C@@H](CC(N)=O)C(=O)N[C@@H](Cc1c[nH]c2ccccc12)C(=O)N[C@@H](CC(C)C)C(=O)N[C@H](C(=O)N[C@@H](CCCNC(=N)N)C(=O)N[C@@H](CCC(N)=O)C(=O)N[C@@H](CCCNC(=N)N)C(=O)N[C@@H](Cc1ccccc1)C(N)=O)[C@@H](C)O
B2: Compound A71 (peptide)
peptide: PKPEK([γGlu-γGlu-C20 diacid])PGKDASPKEWNRYYKDLRHYLNWLTRQRF-NH2
modifications: N-terminus assumed
SMILES: CC(C)C[C@H](NC(=O)[C@H](CC(=O)O)NC(=O)[C@H](CCCCN)NC(=O)[C@H](Cc1ccc(O)cc1)NC(=O)[C@H](Cc1ccc(O)cc1)NC(=O)[C@H](CCCNC(=N)N)NC(=O)[C@H](CC(N)=O)NC(=O)[C@H](Cc1c[nH]c2ccccc12)NC(=O)[C@H](CCC(=O)O)NC(=O)[C@H](CCCCN)NC(=O)[C@@H]1CCCN1C(=O)[C@H](CO)NC(=O)[C@H](C)NC(=O)[C@H](CC(=O)O)NC(=O)[C@H](CCCCN)NC(=O)CNC(=O)[C@@H]1CCCN1C(=O)[C@H](CCCCNC(=O)CC[C@H](NC(=O)CC[C@H](NC(=O)CCCCCCCCCCCCCCCCCCC(=O)O)C(=O)O)C(=O)O)NC(=O)[C@H](CCC(=O)O)NC(=O)[C@@H]1CCCN1C(=O)[C@H](CCCCN)NC(=O)[C@@H]1CCCN1)C(=O)N[C@@H](CCCNC(=N)N)C(=O)N[C@@H](Cc1c[nH]cn1)C(=O)N[C@@H](Cc1ccc(O)cc1)C(=O)N[C@@H](CC(C)C)C(=O)N[C@@H](CC(N)=O)C(=O)N[C@@H](Cc1c[nH]c2ccccc12)C(=O)N[C@@H](CC(C)C)C(=O)N[C@H](C(=O)N[C@@H](CCCNC(=N)N)C(=O)N[C@@H](CCC(N)=O)C(=O)N[C@@H](CCCNC(=N)N)C(=O)N[C@@H](Cc1ccccc1)C(N)=O)[C@@H](C)O
B3: Compound A74 (peptide)
peptide: PKPEKPGK([γGlu-γGlu-C20 diacid])DASPEEWNRYYKDLRHYLNWLTRQRF-NH2
modifications: N-terminus assumed
SMILES: CC(C)C[C@H](NC(=O)[C@H](CC(=O)O)NC(=O)[C@H](CCCCN)NC(=O)[C@H](Cc1ccc(O)cc1)NC(=O)[C@H](Cc1ccc(O)cc1)NC(=O)[C@H](CCCNC(=N)N)NC(=O)[C@H](CC(N)=O)NC(=O)[C@H](Cc1c[nH]c2ccccc12)NC(=O)[C@H](CCC(=O)O)NC(=O)[C@H](CCC(=O)O)NC(=O)[C@@H]1CCCN1C(=O)[C@H](CO)NC(=O)[C@H](C)NC(=O)[C@H](CC(=O)O)NC(=O)[C@H](CCCCNC(=O)CC[C@H](NC(=O)CC[C@H](NC(=O)CCCCCCCCCCCCCCCCCCC(=O)O)C(=O)O)C(=O)O)NC(=O)CNC(=O)[C@@H]1CCCN1C(=O)[C@H](CCCCN)NC(=O)[C@H](CCC(=O)O)NC(=O)[C@@H]1CCCN1C(=O)[C@H](CCCCN)NC(=O)[C@@H]1CCCN1)C(=O)N[C@@H](CCCNC(=N)N)C(=O)N[C@@H](Cc1c[nH]cn1)C(=O)N[C@@H](Cc1ccc(O)cc1)C(=O)N[C@@H](CC(C)C)C(=O)N[C@@H](CC(N)=O)C(=O)N[C@@H](Cc1c[nH]c2ccccc12)C(=O)N[C@@H](CC(C)C)C(=O)N[C@H](C(=O)N[C@@H](CCCNC(=N)N)C(=O)N[C@@H](CCC(N)=O)C(=O)N[C@@H](CCCNC(=N)N)C(=O)N[C@@H](Cc1ccccc1)C(N)=O)[C@@H](C)O
B4: Compound A5 (peptide)
peptide: PK([γGlu-γGlu-C20 diacid])PEAPGKDASPEEWNRYYADARHYLNWLTRQR[NMeY]-NH2
modifications: N-terminus assumed
SMILES: CC(C)C[C@H](NC(=O)[C@H](Cc1ccc(O)cc1)NC(=O)[C@H](Cc1c[nH]cn1)NC(=O)[C@H](CCCNC(=N)N)NC(=O)[C@H](C)NC(=O)[C@H](CC(=O)O)NC(=O)[C@H](C)NC(=O)[C@H](Cc1ccc(O)cc1)NC(=O)[C@H](Cc1ccc(O)cc1)NC(=O)[C@H](CCCNC(=N)N)NC(=O)[C@H](CC(N)=O)NC(=O)[C@H](Cc1c[nH]c2ccccc12)NC(=O)[C@H](CCC(=O)O)NC(=O)[C@H](CCC(=O)O)NC(=O)[C@@H]1CCCN1C(=O)[C@H](CO)NC(=O)[C@H](C)NC(=O)[C@H](CC(=O)O)NC(=O)[C@H](CCCCN)NC(=O)CNC(=O)[C@@H]1CCCN1C(=O)[C@H](C)NC(=O)[C@H](CCC(=O)O)NC(=O)[C@@H]1CCCN1C(=O)[C@H](CCCCNC(=O)CC[C@H](NC(=O)CC[C@H](NC(=O)CCCCCCCCCCCCCCCCCCC(=O)O)C(=O)O)C(=O)O)NC(=O)[C@@H]1CCCN1)C(=O)N[C@@H](CC(N)=O)C(=O)N[C@@H](Cc1c[nH]c2ccccc12)C(=O)N[C@@H](CC(C)C)C(=O)N[C@H](C(=O)N[C@@H](CCCNC(=N)N)C(=O)N[C@@H](CCC(N)=O)C(=O)N[C@@H](CCCNC(=N)N)C(=O)N(C)[C@@H](Cc1ccc(O)cc1)C(N)=O)[C@@H](C)O
B5: Compound A6 (peptide)
peptide: PKPK([γGlu-γGlu-C20 diacid])APGKDASPEEWNRYYADARHYLNWLTRQR[NMeY]-NH2
modifications: N-terminus assumed
SMILES: CC(C)C[C@H](NC(=O)[C@H](Cc1ccc(O)cc1)NC(=O)[C@H](Cc1c[nH]cn1)NC(=O)[C@H](CCCNC(=N)N)NC(=O)[C@H](C)NC(=O)[C@H](CC(=O)O)NC(=O)[C@H](C)NC(=O)[C@H](Cc1ccc(O)cc1)NC(=O)[C@H](Cc1ccc(O)cc1)NC(=O)[C@H](CCCNC(=N)N)NC(=O)[C@H](CC(N)=O)NC(=O)[C@H](Cc1c[nH]c2ccccc12)NC(=O)[C@H](CCC(=O)O)NC(=O)[C@H](CCC(=O)O)NC(=O)[C@@H]1CCCN1C(=O)[C@H](CO)NC(=O)[C@H](C)NC(=O)[C@H](CC(=O)O)NC(=O)[C@H](CCCCN)NC(=O)CNC(=O)[C@@H]1CCCN1C(=O)[C@H](C)NC(=O)[C@H](CCCCNC(=O)CC[C@H](NC(=O)CC[C@H](NC(=O)CCCCCCCCCCCCCCCCCCC(=O)O)C(=O)O)C(=O)O)NC(=O)[C@@H]1CCCN1C(=O)[C@H](CCCCN)NC(=O)[C@@H]1CCCN1)C(=O)N[C@@H](CC(N)=O)C(=O)N[C@@H](Cc1c[nH]c2ccccc12)C(=O)N[C@@H](CC(C)C)C(=O)N[C@H](C(=O)N[C@@H](CCCNC(=N)N)C(=O)N[C@@H](CCC(N)=O)C(=O)N[C@@H](CCCNC(=N)N)C(=O)N(C)[C@@H](Cc1ccc(O)cc1)C(N)=O)[C@@H](C)O

Target: T1, NPY5R
Experiment: cell-based or functional assay

NPY5R pEC50	Binder
8.9 -Log(EC50, M)	PKPEAPGK([γGlu-γGlu-C20 diacid])DASPKEWDRYYKDLRHYLNWLTRQRF-NH2 [Compound A76]
8.5 -Log(EC50, M)	B1
8.8 -Log(EC50, M)	B2
9 -Log(EC50, M)	B3
8 -Log(EC50, M)	B4
8.6 -Log(EC50, M)	PKPEAPGK([γGlu-γGlu-C20 diacid])DASPKEWNRYYKDLRHYLNWLTRQRF-NH2 [Compound A73]
7.7 -Log(EC50, M)	B5

Target: T2, NPY2R
Experiment: cell-based or functional assay

NPY2R pEC50	Binder
10.4 -Log(EC50, M)	PKPEAPGK([γGlu-γGlu-C20 diacid])DASPKEWDRYYKDLRHYLNWLTRQRF-NH2 [Compound A76]
10.2 -Log(EC50, M)	B1
10.7 -Log(EC50, M)	B2
10.3 -Log(EC50, M)	B3
7.7 -Log(EC50, M)	B4
10.3 -Log(EC50, M)	PKPEAPGK([γGlu-γGlu-C20 diacid])DASPKEWNRYYKDLRHYLNWLTRQRF-NH2 [Compound A73]
8.9 -Log(EC50, M)	B5
